Data: patent US20240025949A1, “Beta-Arrestin Effectors and Compositions and Methods of Use Thereof” (Trevena, Inc., priority 2021, published 2024)
Where no end group is shown, it is not given here.

What was measured:
[1] = target: human angiotensin 2 type 1 receptor (human) (UniProt P30556); experiment: cell-based or functional assay
[2] = target: rat angiotensin 2 type 1 receptor (rat) (UniProt P25095); experiment: cell-based or functional assay
Chain of rat angiotensin 2 type 1 receptor (rat) (P25095 whole entry): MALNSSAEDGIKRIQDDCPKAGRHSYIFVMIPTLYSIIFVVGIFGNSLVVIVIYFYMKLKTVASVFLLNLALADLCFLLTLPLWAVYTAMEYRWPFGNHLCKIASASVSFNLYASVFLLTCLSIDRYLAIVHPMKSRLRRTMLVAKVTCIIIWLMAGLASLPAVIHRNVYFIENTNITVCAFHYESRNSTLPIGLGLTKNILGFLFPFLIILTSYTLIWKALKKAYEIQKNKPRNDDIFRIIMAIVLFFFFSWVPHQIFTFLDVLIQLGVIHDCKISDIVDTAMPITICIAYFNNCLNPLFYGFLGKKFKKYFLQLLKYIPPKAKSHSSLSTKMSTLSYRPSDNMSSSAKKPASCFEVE

Chain of human angiotensin 2 type 1 receptor (human) (P30556 whole entry): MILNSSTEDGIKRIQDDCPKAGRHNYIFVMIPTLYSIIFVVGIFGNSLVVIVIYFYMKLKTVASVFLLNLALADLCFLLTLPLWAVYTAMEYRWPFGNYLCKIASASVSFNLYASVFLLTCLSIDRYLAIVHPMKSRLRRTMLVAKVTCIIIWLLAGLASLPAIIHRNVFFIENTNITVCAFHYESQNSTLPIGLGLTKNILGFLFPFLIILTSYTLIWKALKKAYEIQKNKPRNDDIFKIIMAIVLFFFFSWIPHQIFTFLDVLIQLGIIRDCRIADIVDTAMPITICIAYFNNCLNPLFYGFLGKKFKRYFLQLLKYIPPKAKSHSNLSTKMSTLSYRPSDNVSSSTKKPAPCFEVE

Molecule	IP One EC50 [1] [nM]	b-arrestin2 EC50 [1] [nM]	b-arrestin2 Max [1] [%]	IP One EC50 [2] [nM]	b-arrestin2 EC50 [2] [nM]	b-arrestin2 Max [2] [%]	IP One Max [2] [%]	IP One Max [1] [%]
SEQ ID NO: 82 (NM-D-Ala-Arg-Val-Tyr-Ile-His-Pro-D-Ala-OH) (peptide)	> 10000	320	38.3	> 10000	130	60.6	–	–
SEQ ID NO: 44 (NMAla-Arg-Val-Tyr-Ile-His-Pro-D-Ala-OH) (peptide)	> 10000	80	47.3	8.2	65	71.9	14.6	–
SEQ ID NO: 84 (Sar-Arg-Val-Tyr-OMTh-His-Pro-D-Ala-OH) (peptide)	> 10000	32	50.5	> 10000	16	80.6	–	–
RVYYHPI (N-terminal Sar; C-terminal amide) [SEQ ID NO: 15 (Sar-Arg-Val-Tyr-Tyr-His-Pro-Ile-NH2)]	250	820	44.3	77	230	62.1	51.1	19.3
RVYEHPI (N-terminal Sar; C-terminal acid) [SEQ ID NO: 16 (Sar-Arg-Val-Tyr-Glu-His-Pro-Ile-OH)]	> 10000	880	56.9	92	140	76.9	24.4	–
RVYYHPA (N-terminal Sar; C-terminal acid) [SEQ ID NO: 19 (Sar-Arg-Val-Tyr-Tyr-His-Pro-Ala-OH)]	> 10000	31	67.9	> 10000	18	91.2	–	–
RVYEHPA (N-terminal Sar; C-terminal acid) [SEQ ID NO: 20 (Sar-Arg-Val-Tyr-Glu-His-Pro-Ala-OH)]	> 10000	> 10000	–	> 10000	3600	86.6	–	–
RVYFHPA (N-terminal Sar; C-terminal acid) [SEQ ID NO: 21 (Sar-Arg-Val-Tyr-Phe-His-Pro-Ala-OH)]	> 10000	33	64.4	> 10000	13	82.7	–	–
RVYHHPA (N-terminal Sar; C-terminal acid) [SEQ ID NO: 22 (Sar-Arg-Val-Tyr-His-His-Pro-Ala-OH)]	> 10000	270	54.5	250	27	74.3	5.2	–
RVYKHPA (N-terminal Sar; C-terminal acid) [SEQ ID NO: 23 (Sar-Arg-Val-Tyr-Lys-His-Pro-Ala-OH)]	> 10000	44	61.2	11	39	84.9	10.3	–
RVYRHPA (N-terminal Sar; C-terminal acid) [SEQ ID NO: 24 (Sar-Arg-Val-Tyr-Arg-His-Pro-Ala-OH)]	> 10000	480	61.3	7.4	63	74.1	15.1	–
RVYYHP (N-terminal Sar; C-terminal amide) [SEQ ID NO: 26 (Sar-Arg-Val-Tyr-Tyr-His-Pro-NH2)]	> 10000	75	51.9	> 10000	38	77.3	–	–
RVYYHP (N-terminal Sar; C-terminal D-Phe) [SEQ ID NO: 28 (Sar-Arg-Val-Tyr-Tyr-His-Pro-D-Phe-OH)]	> 10000	20	82.9	64	19	91.4	24.6	–
RVYVHPA (N-terminal Me2Gly; C-terminal acid) [SEQ ID NO: 31 (Me2G-Arg-Val-Tyr-Val-His-Pro-Ala-OH)]	> 10000	100	58.1	13	37	75.9	6.2	–
ARVYVHPA (N-methyl residue; C-terminal acid) [SEQ ID NO: 33 (NMAla-Arg-Val-Tyr-Val-His-Pro-Ala-OH)]	> 10000	40	54.9	> 10000	31	86.9	–	–
ARVYIHPA (N-methyl residue; C-terminal acid) [SEQ ID NO: 34 (NMAla-Arg-Val-Tyr-Ile-His-Pro-Ala-OH)]	> 10000	25	53	> 10000	32	81.7	–	–
RVYIHP (N-terminal Sar; C-terminal norvaline) [SEQ ID NO: 35 (Sar-Arg-Val-Tyr-Ile-His-Pro-NVA-OH)]	2.7	12	67.9	12	9.3	79.8	30.5	7.1
RVYIHPRVYIHPRVYIHP (cyclic) [SEQ ID NO: 36 (Cyclo(Arg-Val-Tyr-Ile-His-Pro-Arg-Val-Tyr-Ile-His-Pro-Arg-Val-Tyr-Ile-His-Pro))]	> 10000	1200	39.5	100	1900	32.8	19.2	–
FVYIHPFVYIHPFVYIHP (cyclic) [SEQ ID NO: 37 (Cyclo(Phe-Val-Tyr-Ile-His-Pro-Phe-Val-Tyr-Ile-His-Pro-Phe-Val-Tyr-Ile-His-Pro))]	> 10000	1700	62.3	240	1900	60.7	14.7	–
VYIHPF (cyclic) [SEQ ID NO: 38 (Cyclo(Val-Tyr-Ile-His-Pro-Phe))]	> 10000	680	43.1	920	2500	66.4	20.8	–
DRVYYHP-NH2 [SEQ ID NO: 57 (Asp-Arg-Val-Tyr-Tyr-His-Pro-NH2)]	3.6	430	42.1	330	450	64.4	35.3	10
DRVYYHP (D-residue; C-terminal amide) [SEQ ID NO: 58 (D-Asp-Arg-Val-Tyr-Tyr-His-Pro-NH2)]	> 10000	330	48.7	1400	260	81.1	9.94	–
ERVYYHP-NH2 [SEQ ID NO: 59 (Glu-Arg-Val-Tyr-Tyr-His-Pro-NH2)]	> 10000	1400	19.5	> 10000	820	27.8	–	–
ERVYYHP (D-residue; C-terminal amide) [SEQ ID NO: 60 (D-Glu-Arg-Val-Tyr-Tyr-His-Pro-NH2)]	> 10000	340	44	> 10000	180	79.3	–	–
DRVYYHP (N-methyl; C-terminal amide) [SEQ ID NO: 61 (N-Me-Asp-Arg-Val-Tyr-Tyr-His-Pro-NH2)]	> 10000	1200	37.5	> 10000	2100	60.4	–	–
